Earlier results as cited in PMC12687463.
Like-named read-outs stand apart in the source and are kept apart here.

Tests used:
[1] = target: glucokinase regulatory protein (GKRP) (Homo sapiens) (UniProt Q14397)
[2] = target: glucokinase regulatory protein (GKRP) (Homo sapiens) (UniProt Q14397); remark: listed apart in the source
[3] = target: glucokinase regulatory protein (GKRP) (Homo sapiens) (UniProt Q14397); remark: listed apart in the source

Sequence of UniProt Q14397 (Q14397 whole entry): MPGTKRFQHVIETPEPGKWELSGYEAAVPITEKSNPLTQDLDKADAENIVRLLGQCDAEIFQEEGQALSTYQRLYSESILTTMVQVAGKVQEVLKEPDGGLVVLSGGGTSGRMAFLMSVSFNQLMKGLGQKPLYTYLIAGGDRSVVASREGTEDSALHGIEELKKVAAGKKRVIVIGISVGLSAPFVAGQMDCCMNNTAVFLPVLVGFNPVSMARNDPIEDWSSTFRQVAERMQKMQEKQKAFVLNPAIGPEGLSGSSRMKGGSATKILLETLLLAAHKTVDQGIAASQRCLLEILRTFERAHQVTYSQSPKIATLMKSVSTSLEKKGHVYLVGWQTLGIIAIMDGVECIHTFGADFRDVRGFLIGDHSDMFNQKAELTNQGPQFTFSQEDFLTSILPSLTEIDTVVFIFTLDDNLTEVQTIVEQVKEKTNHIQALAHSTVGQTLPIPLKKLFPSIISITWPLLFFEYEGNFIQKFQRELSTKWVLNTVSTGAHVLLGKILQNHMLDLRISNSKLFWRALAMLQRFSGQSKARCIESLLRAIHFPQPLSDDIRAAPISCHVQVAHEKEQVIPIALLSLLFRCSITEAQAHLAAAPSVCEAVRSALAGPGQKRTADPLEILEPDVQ
Sequence of glucokinase (P35557 whole entry): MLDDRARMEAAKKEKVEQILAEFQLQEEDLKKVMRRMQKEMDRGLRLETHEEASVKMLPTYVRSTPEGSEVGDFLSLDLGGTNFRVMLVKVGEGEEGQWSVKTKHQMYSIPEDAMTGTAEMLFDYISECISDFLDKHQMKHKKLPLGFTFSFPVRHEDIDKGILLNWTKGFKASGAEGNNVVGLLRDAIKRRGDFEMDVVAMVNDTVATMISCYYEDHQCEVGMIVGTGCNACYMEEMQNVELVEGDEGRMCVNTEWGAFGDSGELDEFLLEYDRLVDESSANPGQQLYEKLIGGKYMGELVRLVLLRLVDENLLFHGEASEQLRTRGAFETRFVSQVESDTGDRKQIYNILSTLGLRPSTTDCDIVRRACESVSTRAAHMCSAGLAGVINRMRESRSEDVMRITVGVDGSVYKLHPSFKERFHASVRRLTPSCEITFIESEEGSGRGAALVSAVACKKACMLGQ

Ki [1]: 984 nM
Ki [2]: 7000 nM
Ki [3]: 45 nM
Substance: glucokinase (from UniProt P35557)
